Values joined by “and” are separate entries in the source; they are usually repeats but may differ in a detail not shown here. Equal entries are not always repeated.

To fix the notation:
B1: Drosophila LC8 (natural protein)
chain: MSDRKAVIKNADMSEEMQQDAVDCATQALEKYNIEKDIAAYIKKEFDKKYNPTWHCIVGRNFGSYVTHETRHFIYFYLGQVAILLFKSG
notes: LC8 hub protein (dynein light chain LC8) of Drosophila; folds as a homodimer; tag cleaved by TEV protease; also called LC8 dimer; source: E. coli Rosetta (DE3), purified (TALON, anion exchange, Superdex 75 gel filtration)
B3: Drosophila ASCIZ QT2–4 (residues 271–341) (domain or fragment, UniProt Q9VZU1 271-341, looked up)
chain: EVLAPLLRDIETQTPDTRGDIGTMTDDFPEEQEPVAVGSHFHAYSETEPMFDLQTSAHMYTQTCDDLFEEL
notes: also called wildtype QT2–4; intact QT2–4 construct; source: E. coli Rosetta (DE3), purified under denaturing conditions (TALON, anion exchange, gel filtration)

Data set [1] addresses QT2,3 (QT2–4 double-site variant, motifs QT2 and QT3 intact) (Drosophila) (UniProt Q9VZU1). Description: native MS; native ESI-MS; LC8 mixed with double-site QT variant at 2:1 LC8:QT, overnight at 4 °C; 25 µM total protein and dilutions to 500 nM; 200 mM ammonium acetate, pH 7.4. The conditions noted are these: scale: LC8 chains per variant chain.
In data set [2] the target is QT3,4 (QT2–4 double-site variant, motifs QT3 and QT4 intact) (Drosophila) (UniProt Q9VZU1). The data set is described as above. The conditions noted are these: scale: LC8 chains per variant chain.
Data set [3] addresses QT2,4 (QT2–4 double-site variant, motifs QT2 and QT4 intact) (Drosophila) (UniProt Q9VZU1). The description is as above. The conditions noted are these: scale: LC8 chains per variant chain.
Data set [4] has as its target QT2,3 (QT2–4 double-site variant, motifs QT2 and QT3 intact) (Drosophila) (UniProt Q9VZU1). As to the kind of experiment: ITC; LC8 (400–500 µM) in the syringe titrated into QT variant (20–50 µM) in the cell; 25 °C; 50 mM sodium phosphate, 50 mM NaCl, 1 mM sodium azide, 5 mM β-mercaptoethanol, pH 7.5; single set of sites fit, for double-site variants also sequential binding sites (SBS) and two sets of sites (TSS) fits. In general terms: ITC needs no label: the signal is the heat of the interaction.

Data set [5] has as its target QT3,4 (QT2–4 double-site variant, motifs QT3 and QT4 intact) (Drosophila) (UniProt Q9VZU1). The data set is described as above.
The target in data set [6] is QT2 (QT2–4 single-site variant, only motif QT2 intact) (Drosophila) (UniProt Q9VZU1). Described as above.
The target in data set [7] is QT4 (QT2–4 single-site variant, only motif QT4 intact) (Drosophila) (UniProt Q9VZU1). The data set is described as above.
Data set [8] has as its target QT2,4 (QT2–4 double-site variant, motifs QT2 and QT4 intact) (Drosophila) (UniProt Q9VZU1). Described as above.
Data set [9] concerns the molecule itself. Description: native MS; native ESI-MS of the individual proteins (25 µM; dilution series); 200 mM ammonium acetate, pH 7.4.
The target in data set [10] is B3. Description: SEC-MALS; 90 µM QT2–4 or QT4–6 mixed with 300 µM LC8 (1:3.3); Superdex200 10/300 GL, room temperature; 50 mM sodium phosphate, 0.4 M NaCl, 1 mM NaN3, 5 mM β-mercaptoethanol, pH 7.5. The conditions noted are these: both partners purified. In general terms: SEC sorts molecules by how far they enter the pores of the column.
Data set [11] addresses B1. As to the kind of experiment: ITC; LC8 (400–500 µM) in the syringe titrated into QT variant (20–50 µM) in the cell; 25 °C; 50 mM sodium phosphate, 50 mM NaCl, 1 mM sodium azide, 5 mM β-mercaptoethanol, pH 7.5; single set of sites fit, for double-site variants also sequential binding sites (SBS) and two sets of sites (TSS) fits. The note with it: both partners purified.
The target of data set [12] is B1. As to the kind of experiment: negative-stain electron microscopy; images of a QT2–4/LC8 mixture; strings of LC8 dimers counted in 50 images. The conditions noted are these: both partners purified.

What is called stoichiometry N is a count of units in the complex or per binding partner. On to “Drosophila LC8 (from UniProt Q24117 1-89) (natural protein)”, for which the stoichiometry N in data set [1] is 2 (2×) and 4 and 3; in data set [2] it was 2 (2×) and 4 and 3; in [3], 2 (2×) and 4 and 3. The same molecule came in with a fold stabilisation of the stronger site (QT2) against its single-site variant, two sets of sites fit in data set [4] of 7 fold. Also, the fold stabilisation of the weaker site (QT3) against its single-site variant, two sets of sites fit in [4] was found to be 2 fold. Further, in data set [5], the N of site QT3, two sets of sites fit came out at 0.2.
A word on the Kd: it is the free concentration of one partner at which half of the binding sites on the other are occupied at equilibrium, for simple one-to-one binding. In [5], B1 gave a Kd of the second (weaker) site, QT3, sequential binding sites fit of 40 µM and a Kd of the second (weaker) site, QT3, two sets of sites fit of 25.7 µM. Moreover, in data set [6], the dissociation constant (Kd) was 9.3 µM and the dH is -10.7 kcal/mol. In [7], this molecule displayed a Kd of 15 µM and a dH of -16.1 kcal/mol. In data set [8], this molecule registered a N of site QT4, two sets of sites fit of 0.6 and a fold increase in affinity of site QT4 against the single-site variant QT4, sequential binding sites fit of 5 fold. Further, the “stoichiometry N” value in data set [9] turned out to be 2. The “stoichiometry N” value in data set [10] is 1 LC8 chains per QT2–4 chain (2 QT2–4 chains, 2 LC8 chains).

B2: QT3 (QT2–4 single-site variant, only motif QT3 intact) (domain or fragment)
chain: EVLAPLLRDIEAAAPDTRGDIGTMTDDFPEEQEPVAVGSHFHAYSETEPMFDLQTSAHMYAAACDDLFEEL
modifications: Anchor positions are not printed. They were deduced from 8-residue motifs ending in the anchor, linkers of 3 and 30 residues, and 9 residues after QT4; the wild-type letters must match the entry …
Turning to B2, binding with Drosophila LC8 [11] was put at a Kd of 36 µM.
Regarding B3, the binding result with Drosophila LC8 [12] is on record as “binds”.

The values are drawn from publication PMC10046861, “Linker Length Drives Heterogeneity of Multivalent Complexes of Hub Protein LC8 and Transcription Factor ASCIZ” (Biomolecules, 2023).
